The target in assay [1] is recombinant human IL-1 (human). Kind of assay: cell-based or functional assay.
The next assay addresses human IL-4 (human) (UniProt P05112). Nature of the assay: cell-based or functional assay.
For another assay, the target named is human IL-13 (human) (UniProt P35225). Nature of the assay: cell-based or functional assay.
The target in assay [2] is human IL-6 (human) (UniProt P05231). Kind of assay: cell-based or functional assay.
The target of another assay is T1, gp130 on PC12D cells (UniProt P40190).
T1 sequence (looked up): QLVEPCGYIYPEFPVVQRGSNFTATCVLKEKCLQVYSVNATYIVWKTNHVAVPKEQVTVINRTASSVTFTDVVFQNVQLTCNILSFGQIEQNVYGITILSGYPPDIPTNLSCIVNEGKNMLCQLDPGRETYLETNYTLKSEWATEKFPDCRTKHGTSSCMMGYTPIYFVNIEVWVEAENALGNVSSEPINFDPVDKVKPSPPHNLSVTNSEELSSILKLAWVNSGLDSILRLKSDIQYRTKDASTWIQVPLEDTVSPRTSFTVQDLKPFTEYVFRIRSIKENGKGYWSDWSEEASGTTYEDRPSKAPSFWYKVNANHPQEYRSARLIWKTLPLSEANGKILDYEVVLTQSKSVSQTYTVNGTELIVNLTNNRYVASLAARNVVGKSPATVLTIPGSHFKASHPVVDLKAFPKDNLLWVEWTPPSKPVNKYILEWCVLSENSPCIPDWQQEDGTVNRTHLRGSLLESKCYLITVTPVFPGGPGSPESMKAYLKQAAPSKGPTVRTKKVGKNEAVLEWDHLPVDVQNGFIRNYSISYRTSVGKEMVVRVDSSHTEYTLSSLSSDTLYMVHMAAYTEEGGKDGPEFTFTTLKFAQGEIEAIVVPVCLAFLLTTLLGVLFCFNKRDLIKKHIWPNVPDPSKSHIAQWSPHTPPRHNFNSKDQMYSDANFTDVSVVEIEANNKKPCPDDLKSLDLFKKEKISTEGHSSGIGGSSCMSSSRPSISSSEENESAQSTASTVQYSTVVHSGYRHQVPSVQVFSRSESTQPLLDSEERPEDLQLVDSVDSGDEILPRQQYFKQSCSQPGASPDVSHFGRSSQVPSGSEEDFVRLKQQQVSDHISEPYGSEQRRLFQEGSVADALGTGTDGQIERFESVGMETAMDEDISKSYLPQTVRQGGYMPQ
Kind of assay: cell-based or functional assay.

Assay [3] has as its target human IL-6 (human) (UniProt P05231). Kind of assay: dissociation of 20 pM 125I-IL-6 from 500 pM mAb B-E8 after a 1000-fold excess of cold IL-6; Protein G-Sepharose precipitation.
Assay [4] has the same target. Nature of the assay: cell-based or functional assay. The source holds these as a separate data set.

human IL-6 (human), sequence (P05231 30-212 limits assumed): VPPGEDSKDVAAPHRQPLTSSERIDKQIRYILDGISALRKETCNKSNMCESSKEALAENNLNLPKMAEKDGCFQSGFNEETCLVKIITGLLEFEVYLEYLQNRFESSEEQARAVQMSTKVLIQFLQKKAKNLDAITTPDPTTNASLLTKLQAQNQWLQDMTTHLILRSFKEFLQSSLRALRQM
human IL-4 (human), sequence (P05112 25-153 limits assumed): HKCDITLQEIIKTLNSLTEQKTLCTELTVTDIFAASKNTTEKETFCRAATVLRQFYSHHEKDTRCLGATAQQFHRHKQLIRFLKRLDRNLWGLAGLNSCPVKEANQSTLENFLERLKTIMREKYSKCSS
human IL-13 (human), sequence (P35225 35-146 limits assumed): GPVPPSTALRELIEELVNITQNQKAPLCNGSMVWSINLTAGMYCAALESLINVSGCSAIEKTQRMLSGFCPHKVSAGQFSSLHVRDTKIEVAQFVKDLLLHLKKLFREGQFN

With “IL-1-RI.Fc (from UniProt P14778 18-336) (Fc fusion)”, the IL-1-dependent production of IL-6 by MRC5 cells; highest IL-1 concentration blocked in assay [1] lay within 10 to 20 pM.

Regarding IL-4Rα.IL-13Rα1.Fc (Fc fusion), in the assay with human IL-4 (human), the TF1 bioassay (MTS); IL-4 concentration at which growth is inhibited by 50% with 10 nM Trap lay within 3 to 4 nM and the TF1 bioassay (MTS); highest IL-4 concentration whose growth effect is blocked by 10 nM Trap amounted to 1 nM. Further, in the assay with human IL-13 (human), the TF1 bioassay (MTS); IL-13 concentration at which growth is inhibited by 50% with 10 nM Trap lay within 4 to 5 nM and the TF1 bioassay (MTS); highest IL-13 concentration whose growth effect is blocked by 10 nM Trap worked out at 2 nM.

Consider IL-13Rα1.IL-4Rα.Fc (Fc fusion), for which, in the assay with human IL-4 (human), the TF1 bioassay (MTS); IL-4 concentration at which growth is inhibited by 50% with 10 nM Trap fell in the range of 3 to 4 nM and the TF1 bioassay (MTS); highest IL-4 concentration whose growth effect is blocked by 10 nM Trap stood at 1 nM. In the assay with human IL-13 (human), this molecule showed a TF1 bioassay (MTS); IL-13 concentration at which growth is inhibited by 50% with 10 nM Trap of 4 to 5 nM and a TF1 bioassay (MTS); highest IL-13 concentration whose growth effect is blocked by 10 nM Trap of 2 nM.

“gp130-Fc•CNTFRα-Fc ligand Trap (Fc fusion)”: the IL-6-dependent proliferation of XG-1 cells (MTT assay) (fold molar excess over IL-6) with human IL-6 (human) [2] was 1000.

B1: Rat CNTF (ligand, UniProt P20294 1-200, looked up)
chain: MAFAEQTPLTLHRRDLCSRSIWLARKIRSDLTALMESYVKHQGLNKNINLDSVDGVPVASTDRWSEMTEAERLQENLQAYRTFQGMLTKLLEDQRVHFTPTEGDFHQAIHTLMLQVSAFAYQLEELMVLLEQKIPENEADGMPATVGDGGLFEKKLWGLKVLQELSQWTVRSIHDLRVISSHQMGISALESHYGAKDKQM
In the assay with gp130 on PC12D cells, B1 yielded a tyrosine phosphorylation of gp130 induced by IL-6 and sIL-6Rα in PC12D cells of 8 nM; a tyrosine phosphorylation of gp130 induced by IL-6 in PC12D cells (anti-gp130 immunoprecipitation, anti-phosphotyrosine immunoblot) of 2 nM.

B2: anti-IL-6 monoclonal neutralizing antibody B-E8 (antibody, from another filing, V domains shown)
VH: QVTLKESGPGILKPSQTLSLTCSFSGFSLSTSGMGVGWIRQPSGKGLEWLAHIWWDDDKYYNPSLKSQLTISKDTSRNQVFLKITSVDTADTATYYCARSYDDYLYYALDYWGQGTSVTVSS
VL: DIVMTQSPATLSVTPGDRVSLSCRASQSISDYLHWYQQKSHESPRLLIKSVSQSISGIPSRFSGSGSGSDFTLSINSVEPEDVGVYYCQNGHSFPLTFGAGTKLELK
B2: the percent of the initial counts of 125I-IL-6 still bound after three days in the assay with human IL-6 (human) [3] was less than 5%. Moreover, the IL-6-dependent proliferation of XG-1 cells (MTT assay, 50 pg/ml IL-6) (fold molar excess) with human IL-6 (human) [4] is 10.

For the origin of these results see patent publication US20030143697A1.
